Experimental data published in patent publication US20140087995A1 (published 2014).
One block for each binder: values may come before it. Numbered stars: 1 amine (or outer) side, 2 acyl side, 3 side chain; on linkers, the order of the positions; unused ones are H or OH. Bridge positions count the residues as written; N and C are the ends. Side chains are listed from the residue outwards. Ends that are not written are not given here. * marks the point of attachment. C20 diacid = O=C(O)CCCCCCCCCCCCCCCCCCC(=O)*; γGlu = O=C(O)[C@H](CCC(=O)[*:2])N[*:1]; AEEA = NCCOCCOCC(=O)O

What was measured:
[1] = biological target: T1, human calcitonin receptor (human, UniProt P30988 25-474); assay: ratio of binding IC50 at human calcitonin receptor to IC50 at human amylin receptor (reference)
T1 construct: whole, on cells; Used as membranes prepared from the transfected cells; also called hCTR; hCT
T1 sequence (looked up): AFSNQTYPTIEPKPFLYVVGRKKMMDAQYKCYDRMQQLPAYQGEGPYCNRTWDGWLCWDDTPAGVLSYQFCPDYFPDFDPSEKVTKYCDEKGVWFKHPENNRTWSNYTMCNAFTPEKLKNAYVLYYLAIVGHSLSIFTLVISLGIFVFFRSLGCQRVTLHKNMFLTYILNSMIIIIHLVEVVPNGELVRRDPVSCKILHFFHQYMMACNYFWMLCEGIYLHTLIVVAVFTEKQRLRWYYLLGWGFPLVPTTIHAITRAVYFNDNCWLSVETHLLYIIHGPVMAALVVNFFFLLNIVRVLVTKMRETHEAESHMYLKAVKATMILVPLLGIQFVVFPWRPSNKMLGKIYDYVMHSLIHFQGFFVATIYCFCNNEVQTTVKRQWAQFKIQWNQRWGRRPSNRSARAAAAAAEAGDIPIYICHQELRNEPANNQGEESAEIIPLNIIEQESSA
Protocol: The resulting pellet was resuspended, homogenized and centrifuged (20.000 rpm, 15 min) in a buffer containing 20 mM Na-HEPES and 0.1 mM EDTA (pH 7.4, buffer 2). The resulting pellet was resuspended in buffer 2 and protein concentration was measured (BCA protein Assay, Pierce). The homogenate was kept cold during the whole procedure. The membranes were kept at −80° C. until use. The assay was performed in a 384 well Optiplate (PerkinElmer) in a total volume of 40 ul. Membranes were mixed with SPA beads. Final concentration of membranes 35 ng/μL final and SPA beads was 0.05 mg/well. Test-compounds were dissolved in DMSO and further diluted in assay buffer (50 mM Hepes, pH 7.4, 1 mM CaCl2, 5 mM MgCl₂, 0.1% OA and 0.02% Tween20). […] The final mixture was incubated with shaking at 400 rpm for 120 min at 25° C. prior to centrifugation (1500 rpm, 10 min). Samples were analyzed on TopCounter™ (Packard). The IC₅₀ was calculated using (one site binding competition analysis) GraphPad Prism5 as a measure of receptor affinity.
Membranes were prepared in the following way; the cells were rinsed with PBS and incubated with Versene for approximately 5 min before harvesting. The cells were flushed with PBS and the cell-suspension was centrifuged for 5 min at 1000 rpm. Cells were homogenized (Ultrathurrax) in a buffer containing 20 mM Na-HEPES and 10 mM EDTA (pH 7.4) and centrifuged at 20.000 rpm for 15 min. The resulting pellet was resuspended, homogenized and centrifuged (20.000 rpm, 15 min) in a buffer containing 20 mM Na-HEPES and 0.1 mM EDTA (pH 7.4, buffer 2). The resulting pellet was resuspended in buffer 2 and protein concentration was measured (BCA protein Assay, Pierce). The homogenate was kept cold during the whole procedure. The membranes were kept at −80° C. until use. Assay was performed in a 384 well Optiplate (PerkinElmer) in a total volume of 40 ul. Membranes were mixed with SPA beads.

[2] = biological target: T2, rat calcitonin receptor (rat, UniProt P32214 25-516); assay: SPA competition with 125I-calcitonin, membranes with rat calcitonin receptor (Assay VIII)
T2 construct: whole, on cells; Used as membranes prepared from the transfected cells; also called rCTR; rCT
T2 sequence (looked up): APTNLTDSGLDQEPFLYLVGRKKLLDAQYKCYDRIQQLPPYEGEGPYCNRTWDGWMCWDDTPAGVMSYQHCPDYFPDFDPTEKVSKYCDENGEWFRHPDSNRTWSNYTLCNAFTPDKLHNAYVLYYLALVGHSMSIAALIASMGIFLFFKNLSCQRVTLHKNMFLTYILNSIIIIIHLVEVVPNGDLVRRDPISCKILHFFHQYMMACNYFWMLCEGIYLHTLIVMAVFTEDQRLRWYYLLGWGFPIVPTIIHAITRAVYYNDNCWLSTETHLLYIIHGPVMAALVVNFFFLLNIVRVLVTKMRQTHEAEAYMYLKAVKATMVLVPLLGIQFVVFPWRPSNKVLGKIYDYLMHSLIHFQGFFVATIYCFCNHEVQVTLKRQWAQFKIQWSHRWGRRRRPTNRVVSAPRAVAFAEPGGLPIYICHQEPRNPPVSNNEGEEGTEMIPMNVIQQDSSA

[3] = biological target: T2, rat calcitonin receptor; assay: ratio of binding IC50 at rat calcitonin receptor to IC50 at rat amylin receptor (reference)

- Ratio hCT/hAmylin binding [1]: 60.7
- IC50 [2]: 90.6 nM
- Ratio rCT/rAmylin binding [3]: 69.9
B1: N^ε1-[2-[2-[2-[[(4S)-4-carboxy-4-(19-carboxynonadecanoylamino)butanoyl]amino]ethoxy]ethoxy]acetyl]-[Arg17,Pro21,Pro27,Arg34]-h-amylin (peptide)
peptide: K([AEEA-γGlu-C20 diacid])CNTATCATQRLANFLRHSSPNFGAIPSSTNVGRNTY-NH2
modifications: disulfide 2-7; N-terminus assumed
SMILES: CC[C@H](C)[C@H](NC(=O)[C@H](C)NC(=O)CNC(=O)[C@H](Cc1ccccc1)NC(=O)[C@H](CC(N)=O)NC(=O)[C@@H]1CCCN1C(=O)[C@H](CO)NC(=O)[C@H](CO)NC(=O)[C@H](Cc1c[nH]cn1)NC(=O)[C@H](CCCNC(=N)N)NC(=O)[C@H](CC(C)C)NC(=O)[C@H](Cc1ccccc1)NC(=O)[C@H](CC(N)=O)NC(=O)[C@H](C)NC(=O)[C@H](CC(C)C)NC(=O)[C@H](CCCNC(=N)N)NC(=O)[C@H](CCC(N)=O)NC(=O)[C@@H](NC(=O)[C@H](C)NC(=O)[C@@H]1CSSC[C@H](NC(=O)[C@@H](N)CCCCNC(=O)COCCOCCNC(=O)CC[C@H](NC(=O)CCCCCCCCCCCCCCCCCCC(=O)O)C(=O)O)C(=O)N[C@@H](CC(N)=O)C(=O)N[C@@H]([C@@H](C)O)C(=O)N[C@@H](C)C(=O)N[C@@H]([C@@H](C)O)C(=O)N1)[C@@H](C)O)C(=O)N1CCC[C@H]1C(=O)N[C@@H](CO)C(=O)N[C@@H](CO)C(=O)N[C@H](C(=O)N[C@@H](CC(N)=O)C(=O)N[C@H](C(=O)NCC(=O)N[C@@H](CCCNC(=N)N)C(=O)N[C@@H](CC(N)=O)C(=O)N[C@H](C(=O)N[C@@H](Cc1ccc(O)cc1)C(N)=O)[C@@H](C)O)C(C)C)[C@@H](C)O
notes: Analogue of human amylin; disulfide and C-terminal amide as told for h-amylin; also called compound 78

- Ratio hCT/hAmylin binding [1]: 120
- IC50 [2]: 477 nM
- Ratio rCT/rAmylin binding [3]: 94.3
B2: N^ε1-[2-[2-[2-[[(4S)-4-carboxy-4-(19-carboxynonadecanoylamino)butanoyl]amino]ethoxy]ethoxy]acetyl]-[His14,Arg17,Pro21,Pro27,Arg34]-h-amylin (peptide)
peptide: K([AEEA-γGlu-C20 diacid])CNTATCATQRLAHFLRHSSPNFGAIPSSTNVGRNTY-NH2
modifications: disulfide 2-7; N-terminus assumed
SMILES: CC[C@H](C)[C@H](NC(=O)[C@H](C)NC(=O)CNC(=O)[C@H](Cc1ccccc1)NC(=O)[C@H](CC(N)=O)NC(=O)[C@@H]1CCCN1C(=O)[C@H](CO)NC(=O)[C@H](CO)NC(=O)[C@H](Cc1c[nH]cn1)NC(=O)[C@H](CCCNC(=N)N)NC(=O)[C@H](CC(C)C)NC(=O)[C@H](Cc1ccccc1)NC(=O)[C@H](Cc1c[nH]cn1)NC(=O)[C@H](C)NC(=O)[C@H](CC(C)C)NC(=O)[C@H](CCCNC(=N)N)NC(=O)[C@H](CCC(N)=O)NC(=O)[C@@H](NC(=O)[C@H](C)NC(=O)[C@@H]1CSSC[C@H](NC(=O)[C@@H](N)CCCCNC(=O)COCCOCCNC(=O)CC[C@H](NC(=O)CCCCCCCCCCCCCCCCCCC(=O)O)C(=O)O)C(=O)N[C@@H](CC(N)=O)C(=O)N[C@@H]([C@@H](C)O)C(=O)N[C@@H](C)C(=O)N[C@@H]([C@@H](C)O)C(=O)N1)[C@@H](C)O)C(=O)N1CCC[C@H]1C(=O)N[C@@H](CO)C(=O)N[C@@H](CO)C(=O)N[C@H](C(=O)N[C@@H](CC(N)=O)C(=O)N[C@H](C(=O)NCC(=O)N[C@@H](CCCNC(=N)N)C(=O)N[C@@H](CC(N)=O)C(=O)N[C@H](C(=O)N[C@@H](Cc1ccc(O)cc1)C(N)=O)[C@@H](C)O)C(C)C)[C@@H](C)O
notes: Analogue of human amylin; disulfide and C-terminal amide as told for h-amylin; also called compound 84

- Ratio hCT/hAmylin binding [1]: 32
- IC50 [2]: 44.8 nM
- Ratio rCT/rAmylin binding [3]: 162
B3: N^ε1-[2-[2-[2-[[(4S)-4-carboxy-4-(19-carboxynonadecanoylamino)butanoyl]amino]ethoxy]ethoxy]acetyl]-[Gly14,Arg17,Pro21,Pro27,Pro31]-h-amylin (peptide)
peptide: K([AEEA-γGlu-C20 diacid])CNTATCATQRLAGFLRHSSPNFGAIPSSTPVGSNTY-NH2
modifications: disulfide 2-7; N-terminus assumed
SMILES: CC[C@H](C)[C@H](NC(=O)[C@H](C)NC(=O)CNC(=O)[C@H](Cc1ccccc1)NC(=O)[C@H](CC(N)=O)NC(=O)[C@@H]1CCCN1C(=O)[C@H](CO)NC(=O)[C@H](CO)NC(=O)[C@H](Cc1c[nH]cn1)NC(=O)[C@H](CCCNC(=N)N)NC(=O)[C@H](CC(C)C)NC(=O)[C@H](Cc1ccccc1)NC(=O)CNC(=O)[C@H](C)NC(=O)[C@H](CC(C)C)NC(=O)[C@H](CCCNC(=N)N)NC(=O)[C@H](CCC(N)=O)NC(=O)[C@@H](NC(=O)[C@H](C)NC(=O)[C@@H]1CSSC[C@H](NC(=O)[C@@H](N)CCCCNC(=O)COCCOCCNC(=O)CC[C@H](NC(=O)CCCCCCCCCCCCCCCCCCC(=O)O)C(=O)O)C(=O)N[C@@H](CC(N)=O)C(=O)N[C@@H]([C@@H](C)O)C(=O)N[C@@H](C)C(=O)N[C@@H]([C@@H](C)O)C(=O)N1)[C@@H](C)O)C(=O)N1CCC[C@H]1C(=O)N[C@@H](CO)C(=O)N[C@@H](CO)C(=O)N[C@H](C(=O)N1CCC[C@H]1C(=O)N[C@H](C(=O)NCC(=O)N[C@@H](CO)C(=O)N[C@@H](CC(N)=O)C(=O)N[C@H](C(=O)N[C@@H](Cc1ccc(O)cc1)C(N)=O)[C@@H](C)O)C(C)C)[C@@H](C)O
notes: Analogue of human amylin; disulfide and C-terminal amide as told for h-amylin; also called compound 71

- Ratio hCT/hAmylin binding [1]: 80
- IC50 [2]: 38.9 nM
- Ratio rCT/rAmylin binding [3]: 56.8
B4: N^ε1-[2-[2-[2-[[(4S)-4-carboxy-4-(19-carboxynonadecanoylamino)butanoyl]amino]ethoxy]ethoxy]acetyl]-[Arg17,Pro21,Pro27,His34]-h-amylin (peptide)
peptide: K([AEEA-γGlu-C20 diacid])CNTATCATQRLANFLRHSSPNFGAIPSSTNVGHNTY-NH2
modifications: disulfide 2-7; N-terminus assumed
SMILES: CC[C@H](C)[C@H](NC(=O)[C@H](C)NC(=O)CNC(=O)[C@H](Cc1ccccc1)NC(=O)[C@H](CC(N)=O)NC(=O)[C@@H]1CCCN1C(=O)[C@H](CO)NC(=O)[C@H](CO)NC(=O)[C@H](Cc1c[nH]cn1)NC(=O)[C@H](CCCNC(=N)N)NC(=O)[C@H](CC(C)C)NC(=O)[C@H](Cc1ccccc1)NC(=O)[C@H](CC(N)=O)NC(=O)[C@H](C)NC(=O)[C@H](CC(C)C)NC(=O)[C@H](CCCNC(=N)N)NC(=O)[C@H](CCC(N)=O)NC(=O)[C@@H](NC(=O)[C@H](C)NC(=O)[C@@H]1CSSC[C@H](NC(=O)[C@@H](N)CCCCNC(=O)COCCOCCNC(=O)CC[C@H](NC(=O)CCCCCCCCCCCCCCCCCCC(=O)O)C(=O)O)C(=O)N[C@@H](CC(N)=O)C(=O)N[C@@H]([C@@H](C)O)C(=O)N[C@@H](C)C(=O)N[C@@H]([C@@H](C)O)C(=O)N1)[C@@H](C)O)C(=O)N1CCC[C@H]1C(=O)N[C@@H](CO)C(=O)N[C@@H](CO)C(=O)N[C@H](C(=O)N[C@@H](CC(N)=O)C(=O)N[C@H](C(=O)NCC(=O)N[C@@H](Cc1c[nH]cn1)C(=O)N[C@@H](CC(N)=O)C(=O)N[C@H](C(=O)N[C@@H](Cc1ccc(O)cc1)C(N)=O)[C@@H](C)O)C(C)C)[C@@H](C)O
notes: Analogue of human amylin; disulfide and C-terminal amide as told for h-amylin; also called compound 76
